Our source for the Average density values is US20100317541A1.

In the experiment the target is α3 subunit isoform of Na, K-ATPase (human) (UniProt P13637). In words: Western blot of control lysate, antibody at 1:2000, chemiluminescence, band density by Alpha DigiDoc 1000. On the technique in general: Immunoblotting shows a protein as a band on a membrane.

As to “α3 monoclonal antibody from Affinity Bioreagents (Golden, Colo.)”, the Average density came to 45200.
Take “α3 monoclonal antibody from Novus (Littleton, Colo.)”: the Average density was 41100.
In the case of “α3 monoclonal antibody from Sigma (St Louis, Mo.)”, the Average density was found to be 44600.
